Reference: patent publication US20060073087A1, “Method and apparatus for the formation of particles” (priority 1994, published 2006)

Test: colorimetric beta-lactamase activity assay with Nitrocefin (method of O'Callaghan)
Assay type: biochemical
Details: particles formed from aqueous solution with ethanol and supercritical CO2; tested colorimetrically with Nitrocefin
From the text: This illustrates the successful use of the method and apparatus of the invention in preparing particulate protein products in a controlled manner, even where the proteins are insoluble in, or incompatible with, organic solvents.

B1: R-TEM beta-lactamase (protein, UniProt P62593 24-286, looked up)
Beta-lactamase TEM: HPETLVKVKDAEDQLGARVGYIELDLNSGKILESFRPEERFPMMSTFKVLLCGAVLSRVDAGQEQLGRRIHYSQNDLVEYSPVTEKHLTDGMTVRELCSAAITMSDNTAANLLLTTIGGPKELTAFLHNMGDHVTRLDRWEPELNEAIPNDERDTTMPAAMATTLRKLLTGELLTLASRQQLIDWMEADKVAGPLLRSALPAGWFIADKSGAGERGSRGIIAALGPDGKPSRIVVIYTTGSQATMDERNRQIAEIGASLIKHW
notes: water-soluble protein R-TEM beta-lactamase, batch number 1TEM1L88, formed into particles by the method of the invention
- enzymatic activity of the particulate product: retained substantial enzymatic activity
